Data set [1] deals with T1, 14-3-3ζ-strep (human, UniProt P63104 1-245).
T1 chain: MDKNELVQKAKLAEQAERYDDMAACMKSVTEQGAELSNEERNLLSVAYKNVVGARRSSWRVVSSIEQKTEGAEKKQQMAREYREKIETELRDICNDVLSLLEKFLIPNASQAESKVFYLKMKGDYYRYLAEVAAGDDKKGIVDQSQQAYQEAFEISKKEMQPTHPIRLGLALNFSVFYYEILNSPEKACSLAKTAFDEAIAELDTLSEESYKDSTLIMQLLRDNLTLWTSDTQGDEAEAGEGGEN
The data set can be described thus: AUC; sedimentation velocity, 20 °C, 20 mM HEPES pH 7.5, 150 mM NaCl, 10 mM MgCl2, 0.5 mM TCEP; 10 μM single proteins, 10 or 30 μM complex; complex also with added 14-3-3ζ (up to six equivalents) or 20 μM E2 or 4-OHT; KD estimated from peak areas (KD = [A][B]/[AB]), dimer to dimer.

Data set [2] addresses ERα LBD-F domain, PKA-responsive (F591R/P592R), phosphorylated at T594, as in the co-purified ERα/14-3-3ζ complex after SUMO cleavage (human (from the printed UniProt entry)) (UniProt P03372). The description is as above.
Data set [3] deals with T1, 14-3-3ζ-strep. Kind of data set: quantitative LC-QToF-MS of the purified complex; concentrations of 14-3-3ζ and ERα in dilutions of the purified complex read from calibration series of 14-3-3ζ-strep and ERα-pT594-strep.
In data set [4] the target is fluorescein-labeled SRC-1 cofactor peptide (LXXLL motif of SRC-1/NCoA-1). Kind of data set: fluorescence polarisation; fluorescence anisotropy; ERα or complex titrated (2-fold series from 40 μM ERα) to 20 nM fluorescein-labeled SRC1 peptide; DMSO control; 20 mM HEPES pH 7.5, 150 mM NaCl, 10 mM MgCl2, 0.1% Tween20, 0.1% BSA; room temperature; apparent KD (4PL fit). (In fluorescence polarisation assays a small probe gives low polarisation when free and higher when bound to something large.)

For data set [5] the target is unchanged. Kind of data set: fluorescence polarisation; as a10 but in the presence of 100 μM E2; apparent KD.
Data set [6] has as its target T2, ERα(PKA)-strep phosphopeptide (fluorescein-labeled, pT594, with C-terminal strep-tag) (human (from the printed UniProt entry)). The data set can be described thus: fluorescence polarisation; fluorescence anisotropy; 14-3-3ζ titrated (2-fold series from 300 μM) to 2 nM fluorescein-labeled ERα peptide; 20 mM HEPES pH 7.5, 150 mM NaCl, 10 mM MgCl2, 0.1% Tween20, 0.1% BSA; room temperature; apparent.

In data set [7] the target is T2, ERα(PKA)-strep phosphopeptide (fluorescein-labeled, pT594, with C-terminal strep-tag) (human). Kind of data set: fluorescence polarisation; as a13 in the presence of a 2-fold dilution series of 3′de-Ac FC-A (0.015–250 μM); cooperativity analysis of the ternary 14-3-3/peptide/FC-A complex.
For data set [8], the target named is ERα(PKA) phosphopeptide (fluorescein-labeled C-terminal peptide mimic with F591R/P592R, pT594) (human (from the printed UniProt entry)). The description is as above.
Data set [9] deals with T1, 14-3-3ζ-strep. Kind of data set: FP.
Data set [10] deals with the molecule itself. Kind of data set: SEC; analytical SEC, Superdex200 increase 3.2/300, 20 mM Tris pH 7.5, 150 mM NaCl, 10 mM MgCl2, 0.5 mM TCEP; 10 μM 14-3-3ζ, 10 μM ERα-strep, 20 μM complex; BSA as size reference.
The target of data set [11] is T1, 14-3-3ζ-strep. The data set can be described thus: FP.
For data set [12], the target named is T3, 14-3-3ζ-strep (human), P63104.
T3 chain: T1 chain
The data set can be described thus: SEC; analytical SEC, Superdex200 increase 3.2/300, 20 mM Tris pH 7.5, 150 mM NaCl, 10 mM MgCl2, 0.5 mM TCEP; 10 μM 14-3-3ζ, 10 μM ERα-strep, 20 μM complex; BSA as size reference. The note with it: remark: other sources report otherwise.

Data set [13] has the same target. Kind of data set: AUC; sedimentation velocity, 20 °C, 20 mM HEPES pH 7.5, 150 mM NaCl, 10 mM MgCl2, 0.5 mM TCEP; 10 μM single proteins, 10 or 30 μM complex; complex also with added 14-3-3ζ (up to six equivalents) or 20 μM E2 or 4-OHT; KD estimated from peak areas (KD = [A][B]/[AB]), dimer to dimer. To be noted: remark: other sources report otherwise.

By stoichiometry N is commonly meant a count of units in the complex or per binding partner.

Where no end group is shown, it is not given here. [ ]: non-standard residue; d: D form. pT = C[C@@H](OP(=O)(O)O)[C@H](N)C(=O)O

With “ERα LBD-F domain, PKA-responsive (F591R/P592R), phosphorylated at T594, as in the co-purified ERα/14-3-3ζ complex after SUMO cleavage (from UniProt P03372 302-595) (domain or fragment)”, in [1], the Kd was 32 nM and the stoichiometry N (ERα:14-3-3ζ (2:2)) was 1. Further, the stoichiometry N in [2] is 2. The stoichiometry N in data set [3] is 1 ERα:14-3-3ζ.
On to “ERα/14-3-3ζ protein complex (tetramer of an ERα homodimer and a 14-3-3ζ homodimer) (from UniProt P03372 302-595; P63104 1-245)”, for which the Kd in data set [4] came to 9600 nM; in data set [5], 600 nM.
“14-3-3ζ-strep (from UniProt P63104 1-245) (natural protein)”: the fold reduction in binding affinity against the ERα peptide without strep-tag in data set [6] was found to be 50 fold. In addition, the cooperativity factor (α) of FC-A stabilisation in data set [7] is 15; in data set [8], 366.
AEGRRA[pT]V (also: fluorescein label, position not given here) [ERα(PKA) phosphopeptide (fluorescein-labeled C-terminal peptide mimic with F591R/P592R, pT594)] registered a Kd in [9] of 300 nM.

B1: ERαLBD-F-strep (PKA-responsive, non-phosphorylated) (domain or fragment, human (from the printed UniProt entry), UniProt P03372 302-595, looked up)
chain: KKNALALSLTADQMVSALLDAEPPILYSEYDPTRPFSEASMMGLLTNLADRELVHMINWAKRVPGFVDLTLHDQVHLLECAWLEILMIGLVWRSMEHPGKLLFAPNLLLDRNQGKCVEGMVEIFDMLLATSSRFRMMNLQGEEFVCLKSIILLNSGVYTFLSSTLKSLEEKDHIHRVLDKITDTLIHLMAKAGLTLQQQHQRLAQLLLILSHIRHMSNKGMEHLYSMKCKNVVPLYDLLLEMLDAHRLHAPTSRGGASVEETDQSHLATAGSTSSHSLQKYYITGEAEGRRATV
notes: also called ERα-strep; ERα(PKA)-strep; source: E. coli NiCo21 (DE3), purified (Ni-NTA, SUMO cleavage, Strep-Tactin, SEC); not shown: His tag, N-terminal, cleaved; SUMO, N-terminal, cleaved; strep-tag, C-terminal, kept
Consider B1, for which the “stoichiometry N” value in data set [10] stood at 2.
In turn, AEGFPA[pT]V (also: fluorescein label, position not given here) [WT ERα phosphopeptide (fluorescein-labeled C-terminal peptide mimic, pT594)] registered a Kd in [9] of 2200 nM.
AEGRRA[pT]VPWSHPQFEK (also: fluorescein label, position not given here) [ERα(PKA)-strep phosphopeptide (fluorescein-labeled, pT594, with C-terminal strep-tag)] had a Kd in data set [11] of 14000 nM.

B2: 14-3-3ζ-strep, P63104 1-245 (natural protein)
chain: T1 chain
On to B2, for which the stoichiometry N in data set [12] and in data set [13] was 2 throughout.

The values above are taken from article PMC10302166, “Molecular basis and dual ligand regulation of tetrameric estrogen receptor α/14-3-3ζ protein complex” (The Journal of Biological Chemistry, 2023).
